Data on one molecule can be found in publication doi:10.1101/2021.12.06.470909, “Ubiquitination regulates cytoophidium assembly in Schizosaccharomyces pombe” (bioRxiv, 2021).

The test concerns the target T1, ubiquitin (S. pombe (endogenous in S. pombe), UniProt P0CG72 1-76).
T1 construct: ubiquitin of S. pombe, the cut product of the ubiquitin precursors; precipitated with an anti-ubiquitin polyclonal antibody; The ubiquitin may be free, in chains or covalently conjugated; source: endogenous, S. pombe lysate
Briefly: co-IP; S. pombe extract (Buffer A: 50mM Hepes-KOH pH 7.5, 5mM MgAc, 100mM KAc, 0.1% NP40, 1mM DTT, 0.5mg/ml BSA) precipitated with anti-ubiquitin rabbit polyclonal antibody overnight at 4°C, then A/G magnetic beads; blot with anti-HA (Cts1-flag-3HA, with MG132) or anti-GFP (Cts1-YFP strains; also in mug30Δ and ubr11Δ backgrounds); IP signal normalised over input. The following applies: partners not purified.

T1 sequence (P0CG72 1-76): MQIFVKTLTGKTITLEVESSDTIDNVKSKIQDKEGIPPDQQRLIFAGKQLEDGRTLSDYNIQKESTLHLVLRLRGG

B1: Cts1-YFP K430R (enzyme, S. pombe, UniProt O42644 1-600, looked up)
chain: MKYVLVSGGVISGIGKGVIASSTGLLLKTLGLKVTSIKIDPYMNIDAGTMSPLEHGEVFVLNDGGEVDLDLGNYERYLNVTLTHDNNITTGKVYSNVIQKERRGDYLGKTVQIVPHVTNEIQDWVERVARIPVDQSGEEPDVCIVELGGTVGDIESAAFVEAMRQFQFRVGHENFVSIHVSLVPVINGEQKTKPTQQAIRDLRSLGITPDLIACRCKQPLEKSVIDKISLFCHVGPEQVLAVHDVSSTYHVPQLLEDKLLEYLKIRFALDKISVSRELALAGENMWSSWKHLTQGYDHLFKKVTIVLVGKYTHLQDSYISVIKALEHSAMRCGRKLDLQWVEASHLEASTNTSDPLSYHKAWHLVCSANGILVPGGFGSRGVEGMIAAAKWARENNTPYLGICLGMQVAVIEFARSVCGIEGAFSEEFDRECENNVVVYMPEIDKDKLGGTMRLGLRPTFFQPNSEWSKLRKLHKMVDEVLERHRHRYEINPAFVSRLEQGGISFIGKDERGERMEIIEKRDHPYFVGVQYHPEYLSKPLKPSPPIFGLVAASAGLLDEFIQSGEEVEWSNFSHFNAESALADMNDSVEVTEEATVVTIS
notes: CTP synthase (Cts1) of Schizosaccharomyces pombe with the point mutation K430R, fused to YFP; source: S. pombe K430R strain in a Cts1-YFP background, in cell lysate
Turning to B1, the “fold reduction of the co-IP signal against Cts1-YFP” value came to 6.2 fold.
